Test results from IntAct's records for PubMed 11932251.

Target: T1, ranb3_human RANBP3 (UniProt Q9H6Z4)
T1 sequence: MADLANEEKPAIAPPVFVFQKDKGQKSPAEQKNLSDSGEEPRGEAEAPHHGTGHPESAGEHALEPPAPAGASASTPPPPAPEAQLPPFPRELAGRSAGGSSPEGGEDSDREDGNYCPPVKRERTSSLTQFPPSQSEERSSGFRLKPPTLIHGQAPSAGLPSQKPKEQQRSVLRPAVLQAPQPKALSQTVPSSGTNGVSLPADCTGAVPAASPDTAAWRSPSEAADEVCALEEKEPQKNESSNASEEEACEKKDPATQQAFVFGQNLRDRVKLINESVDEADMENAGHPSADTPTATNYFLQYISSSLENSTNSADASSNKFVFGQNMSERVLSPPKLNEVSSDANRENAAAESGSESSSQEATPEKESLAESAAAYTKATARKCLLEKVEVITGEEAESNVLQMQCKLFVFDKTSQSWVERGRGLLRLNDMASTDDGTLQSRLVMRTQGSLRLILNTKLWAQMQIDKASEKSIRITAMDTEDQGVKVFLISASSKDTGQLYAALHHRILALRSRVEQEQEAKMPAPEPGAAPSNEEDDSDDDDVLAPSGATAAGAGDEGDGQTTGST

- effect of a mutation on the interaction: increasing interaction
Substance: GTP-binding nuclear protein Ran (Homo sapiens) (from UniProt P62826) Q69L
